The values below are quoted from earlier work in article PMC3145095.

This data set has as its target CD8αα (Mus musculus) (UniProt P01731).
UniProt P01731, sequence (P01731 28-196): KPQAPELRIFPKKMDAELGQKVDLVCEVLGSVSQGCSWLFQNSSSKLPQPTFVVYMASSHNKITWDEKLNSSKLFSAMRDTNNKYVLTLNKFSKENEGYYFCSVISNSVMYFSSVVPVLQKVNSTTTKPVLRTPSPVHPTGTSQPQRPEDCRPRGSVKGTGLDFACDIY

On to “Thymus leukaemia antigen (TL) (from UniProt P14432)”, for which the Kd (in general, a measure of binding affinity in units of concentration) was 12 µM.
